The supplement of paper PMC7877785
± gives the uncertainty stated by the source.

Assay: self-splicing fitness, log relative to wild type (ln ratio); higher = more splicing; Tetrahymena group I intron in knt gene, E. coli kanamycin selection, DiMSum; sequences stand for … in CUCUCU…GGAGGGAAAAGUUAUCAGGCAUGCACCUGGUAGCUAGUCUUUAAACCAAUAGAUUGCAUCGGUUUAAAAGGCAAGACCGUCAAAUUGCGGGAAAGGGGUCAACAGCCGUUCAGUACCAAGUCUCAGGGGAAACUUUGAGAUGGCCUUGCAAAGGGUAUGGUAAUAAGCUGACGGACAUGGUCCUAACCACGCAGCCAAGUCCUAAGUCAACAGAUCUUCUGUUGAUAUGGAUGCAGUUCACAGACUAAAUGUCGGUCGGGGAAGAUGUAUUCUUCUCAUAAGAUAUAGUCGGACCUCUCCUUAAUGGGAGCUAGCGGAUGAAGUGAUGCAACACUGGAGCCGCUGGGAACUAAUUUGUAUGCGAAAGUAUAUUGAUUAGUUUUGGAGUACUCGUGGUCG
In short: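 A randomised library covering all eight P1ex-region intron nucleotides was built with the intron in the knt kanamycin-resistance gene on pET-22b(+) and held in E. coli BL21(DE3). Cells were grown overnight at 37°C or 30°C on LB agar, with or without 25 μg/mL kanamycin, plus 100 μg/mL carbenicillin, 50 μM IPTG and 0.2% rhamnose, and pooled colonies were amplicon-sequenced on an Illumina HiSeq 2500. DiMSum fitness is the error-weighted combination of wild-type-normalised replicate fold changes, kanamycin versus none.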

Row | Sequence | self-splicing fitness (ln) (30 °C) | self-splicing fitness (ln) (37 °C)
1 | GCCGAGCAAUAUUACGGGGA | -1.36 ± 0.069 | -0.555 ± 0.069
2 | GCCGAGCAAUAUUACGGGUG | -0.694 ± 0.067 | -0.014 ± 0.075
3 | GCCGAGCAAUAUUACGGUAC | -2.88 ± 0.15 | -0.908 ± 0.24
4 | GCCGAGCAAUAUUACGGUAU | -1.89 ± 0.13 | -0.878 ± 0.12
5 | GCCGAGCAAUAUUACGGUCA | -1.63 ± 0.098 | -0.977 ± 0.09
6 | GCCGAGCAAUAUUACGGUUG | -1.38 ± 0.14 | -0.555 ± 0.19
7 | GCCGAGCAAUAUUACGUAAG | -2.26 ± 0.13 | -1.09 ± 0.12
8 | GCCGAGCAAUAUUACGUCAU | -3.5 ± 0.25 | -1.31 ± 0.17
9 | GCCGAGCAAUAUUACGUGCC | -3.35 ± 0.15 | -2.52 ± 0.2
10 | GCCGAGCAAUAUUACGUGUG | -1.43 ± 0.07 | -0.815 ± 0.081
11 | GCCGAGCAAUAUUACGUGUU | -2.22 ± 0.088 | -1.66 ± 0.1
12 | GCCGAGCAAUAUUACGUUUG | -3.75 ± 0.2 | -1.54 ± 0.19
13 | GCCGAGCAAUAUUACGUUUU | -3.18 ± 0.18 | -1.75 ± 0.14
14 | GCCUAGCAAUAUUACGAACG | -2.19 ± 0.19 | -0.701 ± 0.27
15 | GCCUAGCAAUAUUACGAAGC | -2.24 ± 0.13 | -2.15 ± 0.19
16 | GCCUAGCAAUAUUACGACGU | -0.19 ± 0.058 | 0.0659 ± 0.07
17 | GCCUAGCAAUAUUACGAGGU | -3.07 ± 0.18 | -2.9 ± 0.23
18 | GCCUAGCAAUAUUACGAGUC | -0.636 ± 0.14 | -0.0225 ± 0.18
19 | GCCUAGCAAUAUUACGCCAG | -2.75 ± 0.27 | -2.67 ± 0.48
20 | GCCUAGCAAUAUUACGCCUU | -1.15 ± 0.086 | -0.212 ± 0.1
21 | GCCUAGCAAUAUUACGCUUC | -2.42 ± 0.16 | -0.334 ± 0.13
22 | GCCUAGCAAUAUUACGCUUG | -2.37 ± 0.17 | -1.96 ± 0.26
23 | GCCUAGCAAUAUUACGGGAU | -0.903 ± 0.11 | 0.0611 ± 0.13
24 | GCCUAGCAAUAUUACGGUGC | -2.59 ± 0.15 | -1.48 ± 0.14
25 | GCCUAGCAAUAUUACGGUUC | -1.02 ± 0.07 | -1.45 ± 0.11

Row | Sequence | self-splicing fitness (ln) (30 °C) | self-splicing fitness (ln) (37 °C)
26 | GCCUAGCAAUAUUACGGUUG | -3.8 ± 0.14 | -1.62 ± 0.11
27 | GCCUAGCAAUAUUACGUGAG | -1.21 ± 0.085 | -0.757 ± 0.091
28 | GCCUAGCAAUAUUACGUUAA | -1.86 ± 0.13 | -1.28 ± 0.13
29 | GCCUAGCAAUAUUACGUUCA | -1.37 ± 0.16 | -1.12 ± 0.17
30 | GCCUAGCAAUAUUACGUUCG | -2.74 ± 0.15 | -2.09 ± 0.19
31 | GCCUAGCAAUAUUACGUUGA | -1.54 ± 0.11 | -0.577 ± 0.1
32 | GCCUAGCAAUAUUACGUUGC | -1.05 ± 0.076 | -0.0792 ± 0.081
33 | GCCUAGCAAUAUUACGUUUA | -2.34 ± 0.18 | -1.7 ± 0.14
34 | GCGAAGCAAUAUUACGAACG | -1.63 ± 0.16 | -0.889 ± 0.21
35 | GCGAAGCAAUAUUACGAAUU | -2.58 ± 0.16 | -2.38 ± 0.3
36 | GCGAAGCAAUAUUACGACCG | -1.66 ± 0.25 | -0.671 ± 0.21
37 | GCGAAGCAAUAUUACGAGAA | -2.63 ± 0.46 | -1.38 ± 0.26
38 | GCGAAGCAAUAUUACGAUUG | -2.92 ± 0.097 | -1.64 ± 0.096
39 | GCGAAGCAAUAUUACGCAUU | -2.56 ± 0.17 | -2.15 ± 0.19
40 | GCGAAGCAAUAUUACGCCAU | – | -2.48 ± 0.36
41 | GCGAAGCAAUAUUACGCCGU | -3.41 ± 0.35 | -1.81 ± 0.29
42 | GCGAAGCAAUAUUACGCUUU | -2.27 ± 0.19 | -2.03 ± 0.4
43 | GCGAAGCAAUAUUACGGACG | -0.0597 ± 0.13 | -0.969 ± 0.2
44 | GCGAAGCAAUAUUACGGAGU | -3.66 ± 0.2 | -3.43 ± 0.42
45 | GCGAAGCAAUAUUACGGAUA | -1.76 ± 0.12 | -0.933 ± 0.12
46 | GCGAAGCAAUAUUACGGGGG | -2.43 ± 0.24 | -2.48 ± 0.34
47 | GCGAAGCAAUAUUACGGUCA | -1.7 ± 0.11 | -1.36 ± 0.1
48 | GCGAAGCAAUAUUACGUAAA | -1.85 ± 0.16 | -2.12 ± 0.23
49 | GCGAAGCAAUAUUACGUAAC | -2.64 ± 0.14 | -1.44 ± 0.16
50 | GCGAAGCAAUAUUACGUACU | -0.436 ± 0.073 | 0.194 ± 0.09

Row | Sequence | self-splicing fitness (ln) (30 °C) | self-splicing fitness (ln) (37 °C)
51 | GCGAAGCAAUAUUACGUAUA | -2.18 ± 0.29 | 0.188 ± 0.43
52 | GCGAAGCAAUAUUACGUCUC | -2.04 ± 0.12 | -1.41 ± 0.14
53 | GCGAAGCAAUAUUACGUGAA | -2.3 ± 0.14 | -0.526 ± 0.14
54 | GCGAAGCAAUAUUACGUGGA | -1.9 ± 0.13 | -2.88 ± 0.21
55 | GCGAAGCAAUAUUACGUUCA | -1.03 ± 0.13 | -0.809 ± 0.16
56 | GCGAAGCAAUAUUACGUUCU | -1.93 ± 0.11 | -0.859 ± 0.11
57 | GCGAAGCAAUAUUACGUUGG | -4.02 ± 0.17 | -2.97 ± 0.18
58 | GCGAAGCAAUAUUACGUUUU | -3.16 ± 0.12 | -2.5 ± 0.17
59 | GCGCAGCAAUAUUACGAAUC | 0.348 ± 0.15 | -0.0791 ± 0.13
60 | GCGCAGCAAUAUUACGAAUU | -1.64 ± 0.14 | -0.932 ± 0.22
61 | GCGCAGCAAUAUUACGAUAA | -1.85 ± 0.11 | -0.604 ± 0.14
62 | GCGCAGCAAUAUUACGAUAU | -1.18 ± 0.078 | -0.433 ± 0.1
63 | GCGCAGCAAUAUUACGCAGA | -3.32 ± 0.22 | -2.5 ± 0.24
64 | GCGCAGCAAUAUUACGCGCG | -3.1 ± 0.32 | –
65 | GCGCAGCAAUAUUACGCGGG | -2.93 ± 0.1 | -1.37 ± 0.097
66 | GCGCAGCAAUAUUACGCGUC | -3.41 ± 0.16 | -2.41 ± 0.2
67 | GCGCAGCAAUAUUACGCGUU | -2.99 ± 0.14 | -2.06 ± 0.15
68 | GCGCAGCAAUAUUACGCUCG | -3.65 ± 0.38 | -2.89 ± 0.34
69 | GCGCAGCAAUAUUACGCUCU | -3.21 ± 0.28 | -1.29 ± 0.23
70 | GCGCAGCAAUAUUACGCUUG | -2.57 ± 0.12 | -1.06 ± 0.12
71 | GCGCAGCAAUAUUACGGACG | -2.17 ± 0.13 | -0.91 ± 0.15
72 | GCGCAGCAAUAUUACGGCCC | -1.21 ± 0.14 | 0.349 ± 0.24
73 | GCGCAGCAAUAUUACGGGAA | -1.92 ± 0.086 | -0.883 ± 0.066
74 | GCGCAGCAAUAUUACGGGAG | -3.14 ± 0.18 | -1.39 ± 0.13
75 | GCGCAGCAAUAUUACGGUAG | -3.4 ± 0.15 | -1.88 ± 0.14

Row | Sequence | self-splicing fitness (ln) (30 °C) | self-splicing fitness (ln) (37 °C)
76 | GCGCAGCAAUAUUACGGUCU | -0.494 ± 0.075 | 0.0551 ± 0.095
77 | GCGCAGCAAUAUUACGGUGU | -2.83 ± 0.14 | -2.47 ± 0.17
78 | GCGCAGCAAUAUUACGUAAG | -0.982 ± 0.066 | -0.943 ± 0.1
79 | GCGCAGCAAUAUUACGUAGU | -0.438 ± 0.06 | 0.18 ± 0.076
80 | GCGCAGCAAUAUUACGUAUU | -0.596 ± 0.081 | -0.709 ± 0.099
81 | GCGCAGCAAUAUUACGUGUA | -0.699 ± 0.071 | -0.0774 ± 0.077
82 | GCGCAGCAAUAUUACGUGUU | -1.06 ± 0.075 | -0.857 ± 0.092
83 | GCGGAGCAAUAUUACGAAGC | -2.45 ± 0.23 | -2.13 ± 0.4
84 | GCGGAGCAAUAUUACGAGUA | -3.21 ± 0.21 | -1.82 ± 0.15
85 | GCGGAGCAAUAUUACGCCUU | – | -2.17 ± 0.49
86 | GCGGAGCAAUAUUACGCGGA | -2.07 ± 0.33 | –
87 | GCGGAGCAAUAUUACGCUCC | – | -0.469 ± 0.39
88 | GCGGAGCAAUAUUACGGAAU | -2.29 ± 0.21 | -3.42 ± 0.35
89 | GCGGAGCAAUAUUACGGAUA | -2.53 ± 0.33 | -1.26 ± 0.25
90 | GCGGAGCAAUAUUACGGGAA | -2.13 ± 0.27 | -2.23 ± 0.35
91 | GCGGAGCAAUAUUACGGGAG | -2.36 ± 0.42 | -0.916 ± 0.48
92 | GCGGAGCAAUAUUACGGGCA | – | -1.1 ± 0.47
93 | GCGGAGCAAUAUUACGGGUA | -4.43 ± 0.42 | -1.72 ± 0.2
94 | GCGGAGCAAUAUUACGGUCG | -3.61 ± 0.26 | -2.41 ± 0.21
95 | GCGGAGCAAUAUUACGUAUU | -3.85 ± 0.25 | -2.48 ± 0.41
96 | GCGUAGCAAUAUUACGAAGA | -1.89 ± 0.21 | -1.51 ± 0.24
97 | GCGUAGCAAUAUUACGAAGC | -3.48 ± 0.3 | -1.67 ± 0.47
